Test results reported in article doi:10.1101/625327.

Experiments:
Test in all cases: SPR
M/N120 = M/N120 (UniProt Q9UBB5)
M/N20 = M/N20 (UniProt Q9UBB5)
M/N60 = M/N60 (UniProt Q9UBB5)

Measured: Kd

P15 (from UniProt Q86YP4 137-178) (domain or fragment)
3 nM: all assays above
